Measured values as given in patent publication US20040241164A1.

Experiments:
[1] = molecular target: Soluble Aβ 1-42 (UniProt P05067); assay: BIAcore 2000 SPR, antibody captured by anti-Ig, soluble Aβ in flow
[2] = molecular target: Soluble Aβ 1-40 (UniProt P05067); assay: as above

Kd [1] [nM]	Kd [2] [nM]	Substance
4.4		anti-Aβ murine antibody 21F12
24	23	anti-Aβ murine antibody 4G8
0.004	0.004	Murine anti-Aβ antibody 266
